Experimental data as given in patent US20250163410.

System: VchCAST TnsB transposase (Tn6677; assayed with TnsA-TnsC and TniQ-Cascade) (Vibrio cholerae)
Experiment: cell_activity
Details: for binding signal: no IPTG

Work on “ACATTTGTTGATACAACCATAAAATGATAATTACACCCATAAATTGATAATTATCACACCCATAAATTGATATTGCCTCTCGCGAGAGGCCGGCAGCCGTCTGGCGTCGGGTGGCGGGCACCGACAC (double strand) [Right end hyperactive 2697]” yielded a binding signal (T-RL) of 2.03 fold vs WT.
For “ACATTTGTTGATACAACCATAAAATGATAATAACACCCATAAATTGATAATTATCACACCCATAAATTGATATTGCCTCTGATCATAGTCAGACCAACATTGCTACGACCCGTATTCGCACCGACAC (double strand) [Right end variant 990]”, the binding signal (log2 fold vs WT) (T-RL, second replicate 1.0127) was 0.854.
“ACATTTGTTGATACAACCATAAAATGATAATTACACCCATAAATTGATAATTATCACACCCATAAATTGATATTGCCTCTGATCATATTTAATAATTAATTTATATATTTAAGTCAGGCACCGACAC (double strand) [Right end hyperactive 2691]” gave a binding signal (T-RL) of 2.63 fold vs WT.
Sequence “AATGTTGTTGATGCAACCATAAAGTGATATTTAATAATTATTTATAATCAGCAACTTAACCACAAAACAACCAGATATTGATATCTCACAAAACAACCATAAGTTGATATTTTTGTGAATCGAGTATTTCAGCAAAACTACTGCAGTAAGAA (double strand) [Left end variant 3260]” has a binding signal (log2 fold vs WT) (T-RL, second replicate -0.7874) of -1.91.
“TTTTGTGTTGAAACAACCATAAAGTGATAACAACGAATCAATTAAAATCATAGGCTTAATCGAAAAACAACCATATCTTGATATCGCATAAAACAACCATAAGTTGATATTTTTGTGAATAGGATATTCCAACCTTCATAGTTTAGTAAGAA (double strand) [Left end hyperactive 4670]” showed a binding signal (T-RL) of 1.67 fold vs WT.
“TGTTGATACAACCATTAAATGATAATTCCACCCATAATTTGATAATTATCACACCCA (double strand) [Right end ORF3b]” showed a binding signal (log2 fold vs WT) (T-RL, second replicate -0.65) of -0.84.
“ACATTTGTTGATACAACCATAAAATGATAATTACACCCATAAATTGATAATTATCACACCCATACCTTGATATTGCCTCTGATCATAGTCAGACCAACATTGCTACGACCCGTATTCGCACCGACAC (double strand) [Right end variant 1100]” gave a binding signal (log2 fold vs WT) (T-RL, second replicate 1.4027) of 1.3.
Sequence “AATGTTGTTGATGCAACCATAAAGTGATATTTAATAATTATTTATAATCAGCAACTTAACCACAAAACAACCATATATTGATATCTCACAAAACACCCATAAGTTGATATTTTTGTGAATCGAGTATTTCAGCAAAACTACTGCAGTAAGAA (double strand) [Left end variant 3195]” has a binding signal (log2 fold vs WT) (T-RL, second replicate 0.7256) of 0.722.
“ACATTGGTTGATACAACCATAAAATGATAATTACACCCATAAATTGATAATTATCACACCCATAAATTGATATTGCCTCTGATCATAGTCAGACCAACATTGCTACGACCCGTATTCGCACCGACAC (double strand) [Right end variant 1069]” gave a binding signal (log2 fold vs WT) (T-RL, second replicate -6.7160) of -6.61.
For “AATGTTGTTGATGCAACCATAAAGTGATATTTAATAATTATTTATAATCAGCAACTTAACCACAAAACAACCATATATTGATATCTCACAAAACAACCATAAGTTGATATTTTTGTGAATAGGATATTCCAACCTTCATAGTTTAGTAAGAA (double strand) [Left end hyperactive 4673]”, the binding signal (T-RL) was 1.53 fold vs WT.
Sequence “AATGTTGTTGATGCAACCATAAAGTGATATTTACGAATCAATTAAAATCATAGGCTTAATCGAAAAACAACCATATATTGATATCTCATAAAACAACCATAAGTTGATATTTTGGTGAAAAGGATATTCCAACCTTCATAGTTTAGTAAGAA (double strand) [Left end hyperactive 4666]” has a binding signal (T-RL) of 2.58 fold vs WT.
Work on “ACATTTGTTGATACAACCATAAAATGATAATTACACCCATAAATTGATAATTATCACACCCATAAATTGATATTGCCTCTCAGACCACATAGCTGCCATGTCCTGATCGGACGGACCGCACCGACAC (double strand) [Right end hyperactive 2701]” yielded a binding signal (T-RL) of 1.7 fold vs WT.
With “ACATTTGGTGATACAACCATAAAATGATAATTACACCCATAAATTGATAATTATCACACCCATAAATTGATATTGCCTCTGATCATAGTCAGACCAACATTGCTACGACCCGTATTCGCACCGACAC (double strand) [Right end variant 1063]” the binding signal (log2 fold vs WT) (T-RL, second replicate -5.3052) was -6.47.
“TGTGGATCCAACCATAAAATGATAATTACACCCATAAATGGATCATTATCACACCCA (double strand) [Right end ORF1c]” gave a binding signal (log2 fold vs WT) (T-RL, second replicate -1.51) of -2.06.
For “AATGTTGTTGAAACAACCATAAAGTGATAACAACGAATCAATTAAAATCATAGGCTTAATCGAAAAACAACCATATCTTGATATCGCATAAAACAACCATAAGTTGATATTTTGGTGAAAAGGATATTCCAACCTTCATAGTTTAGTAAGAA (double strand) [Left end hyperactive 4668]”, the binding signal (T-RL) was 1.76 fold vs WT.
In the case of “AATGTTGTTGATGCAACCATAAAGTGATATTTAATAATTATTTATAATCAGCAACTTAACCTCAAAACAACCATATATTGATATCTCACAAAACAACCATAAGTTGATATTTTTGTGAATCGAGTATTTCAGCAAAACTACTGCAGTAAGAA (double strand) [Left end variant 3295]”, the binding signal (log2 fold vs WT) (T-RL, second replicate 1.3754) is reported as 0.963.
In the case of “ACATTTGTTGATACAACCATAAAATGATAATTACACCCATAAATTGATAATTATCACACCCATAAATTGATATTGCCTCTTTATGCAGGACGACGTACGCGTTCCATATAAACCTGTGCACCGACAC (double strand) [Right end hyperactive 2696]”, the binding signal (T-RL) is reported as 1.83 fold vs WT.
“ACATTAGTTGATACAACCATAAAATGATAATTACACCCATAAATTGATAATTATCACACCCATAAATTGATATTGCCTCTGATCATAGTCAGACCAACATTGCTACGACCCGTATTCGCACCGACAC (double strand) [Right end variant 1068]” was tested, and the binding signal (log2 fold vs WT) (T-RL, second replicate -5.4441) was -6.17.
For “AATGTTGTTGATGCAACCATAAAGTGATATTTAATAATTATTTATAATCAGCAACTTAACCACAAAACAACCATATATTGATATCTCACAAAACAACCATAAGTTCATATTTTTGTGAATCGAGTATTTCAGCAAAACTACTGCAGTAAGAA (double strand) [Left end variant 3165]”, the binding signal (log2 fold vs WT) (T-RL, second replicate -1.3719) was -2.25.
For “ACATTTGTTGATACAACCATAAAATGATAATTACACCCATAAATTGATAATTATCACACCCATAAATTGATATTGCCTCTGTTGGCGCCCGGCCCTCAGGCCCTGCAGTGAGTTCCAGCACCGACAC (double strand) [Right end hyperactive 2699]”, the binding signal (T-RL) was 1.77 fold vs WT.
“ACATTTGTTGATACAACCATAATATGATAATTACACCCATAAATTGATAATTATCACACCCATAAATTGATATTGCCTCTGATCATAGTCAGACCAACATTGCTACGACCCGTATTCGCACCGACAC (double strand) [Right end variant 1017]” gave a binding signal (log2 fold vs WT) (T-RL, second replicate 1.4722) of 1.36.
“ACATTTGTTGATACAACCATAAAATGATAATTACACCCATAAATTGATAATTATCACACCCATAAATTGATATTGCCTCTCCGACCCGGAAGAGGGCGCCTAGAATTGGGAGTGGTCGCACCGACAC (double strand) [Right end hyperactive 2700]” showed a binding signal (T-RL) of 1.72 fold vs WT.
“TGTTGATACAACCATTAAATGGTAATTCCACCCAAATATTGATAATTATCACACCCA (double strand) [Right end ORF3c]” was tested, and the binding signal (log2 fold vs WT) (T-RL, second replicate -1.89) was -2.49.
“TTTTGTGTTGAAACAACCATAAAGTGATAACAACGAATCAATTAAAATCATAGGCTTAATCGAAAAACAACCATATCTTGATATCGCACAAAACAACCATAAGTTGATATTTTGGTGAAAAGGATATTCCAACCTTCATAGTTTAGTAAGAA (double strand) [Left end hyperactive 4672]” gave a binding signal (T-RL) of 1.54 fold vs WT.
Work on “ACATTTTTTGATACAACCATAAAATGATAATTACACCCATAAATTGATAATTATCACACCCATAAATTGATATTGCCTCTGATCATAGTCAGACCAACATTGCTACGACCCGTATTCGCACCGACAC (double strand) [Right end variant 1066]” yielded a binding signal (log2 fold vs WT) (T-RL, second replicate -1.9162) of -2.48.
Work on “TTTTGTGTTGAAACAACCATAAAGTGATATTTACGAATCAATTAAAATCATAGGCTTAATCGAAAAACAACCATATCTTGATATCGCATAAAACAACCATAAGTTGATATTTTGGTGAAAAGGATATTCCAACCTTCATAGTTTAGTAAGAA (double strand) [Left end hyperactive 4667]” yielded a binding signal (T-RL) of 2.07 fold vs WT.
“ACATTCGTTGATACAACCATAAAATGATAATTACACCCATAAATTGATAATTATCACACCCATAAATTGATATTGCCTCTGATCATAGTCAGACCAACATTGCTACGACCCGTATTCGCACCGACAC (double strand) [Right end variant 1070]” gave a binding signal (log2 fold vs WT) (T-RL, second replicate) of -1.95.
“TTTTGTGTTGAAACAACCATAAAGTGATAACAACGAATCAATTAAAATCATAGGCTTAATCGAAAAACAACCATATATTGATATCTCATAAAACAACCATAAGTTGATATTTTGGTGAAAAGGATATTCCAACCTTCATAGTTTAGTAAGAA (double strand) [Left end hyperactive 4669]” gave a binding signal (T-RL) of 1.69 fold vs WT.
For “TGTGGATACAACCATAAAATGATAATTACACCCATAAATGGATCATTATCACCCCCA (double strand) [Right end ORF1a]”, the binding signal (log2 fold vs WT) (T-RL integration, second replicate -1.08) was -1.47.
With “AATGTTGTTGATGCAACCATAAAGTGATATTTAATAATTATTTATAATCAGCAACTTAACCACAAAACAACCATATATTCATATCTCACAAAACAACCATAAGTTGATATTTTTGTGAATCGAGTATTTCAGCAAAACTACTGCAGTAAGAA (double strand) [Left end variant 3243]” the binding signal (log2 fold vs WT) (T-RL, second replicate -1.5930) was -2.53.
Sequence “TGTGGATACAACCATAAAACGATAATTACACCCATAAATGGATCATTATCACACCCA (double strand) [Right end ORF1b]” has a binding signal (log2 fold vs WT) (T-RL, second replicate) of -2.03.
In the case of “ACATTTGTTGATACAACCATAAAATCATAATTACACCCATAAATTGATAATTATCACACCCATAAATTGATATTGCCTCTGATCATAGTCAGACCAACATTGCTACGACCCGTATTCGCACCGACAC (double strand) [Right end variant 1010]”, the binding signal (log2 fold vs WT) (T-RL, second replicate -1.5090) is reported as -1.91.
“ACATTTGTTGATACAACCATAAAATGATAATTACACCCATAAATTGATAATTATCACACCCATAAATTGATATTGCCTCTGATCATAATTGTTATCCGCTCACAATTCCAGTCAGACGCACCGACAC (double strand) [Right end hyperactive 2694]” showed a binding signal (T-RL) of 1.89 fold vs WT.
In the case of “ACATTTGTTGATACAACCATAAAATGATAATTACACCCATAAATTGATAATTATCACACCCATAAATTGATATTGCCTCTGTACGATCCAGTGATCTCCAAGACGCTGCAAGAGTCCGCACCGACAC (double strand) [Right end hyperactive 2702]”, the binding signal (T-RL) is reported as 1.71 fold vs WT.
